Results on two molecules are retold here after publication PMC3788737, “Structural Insights into Neutrophilic Migration Revealed by the Crystal Structure of the Chemokine Receptor CXCR2 in Complex with the First PDZ Domain of NHERF1” (PLoS ONE, 2013).

In series [1] the target is T1, NHERF1 PDZ1 domain (residues 11-94) (human, UniProt O14745 11-94).
T1 construct: Na+/H+ exchanger regulatory factor-1 (NHERF1), human, PDZ1 domain, residues 11-94; The PDZ1 part of the chimera m1, written on its own for the pair PDZ1 and CXCR2 peptide of the crystal structure; also called first PDZ domain of NHERF1; source: E. coli BL21 Codon Plus (DE3), purified, as part of the chimeric protein PDZ1-TSTTL; not shown: His6, N-terminal, cleaved; SUMO, N-terminal, cleaved
T1 sequence (looked up): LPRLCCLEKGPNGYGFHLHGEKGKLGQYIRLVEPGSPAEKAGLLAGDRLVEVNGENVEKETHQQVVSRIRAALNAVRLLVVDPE
The experiment in a line: crystal structure; chimeric PDZ1(11-94)-TSTTL, hanging drop, 100 mM sodium acetate pH 4.6, 2.7 M sodium chloride, 20 °C; 1.16 Å; the tail of one molecule binds the neighbouring PDZ1. The settings on record: both partners purified.

Series [2] concerns the molecule itself. The description is as above.

B1: CXCR2 C-terminal peptide TSTTL (residues 356-360) (peptide)
peptide: TSTTL
notes: Interleukin 8 receptor, beta (CXCR2), human, residues 356-360 (C-terminus); The CXCR2 part of the chimera m1 (joined to residue 94 of PDZ1), written on its own for the pair of the crystal structure; also called CXCR2 pentapeptide; source: E. coli BL21 Codon Plus (DE3), purified, as the C-terminal extension of the chimeric protein PDZ1-TSTTL
In the case of B1, the binding result in series [1] was “binds”.

B2: chimeric protein of the NHERF1 PDZ1 domain (residues 11-94) fused at its C-terminus to the CXCR2 residues 356-360 (TSTTL) (other, human)
chain: LPRLCCLEKGPNGYGFHLHGEKGKLGQYIRLVEPGSPAEKAGLLAGDRLVEVNGENVEKETHQQVVSRIRAALNAVRLLVVDPETSTTL
notes: Na+/H+ exchanger regulatory factor-1 (NHERF1), human, PDZ1 domain, residues 11-94; C-terminal extension that corresponds to residues 356-360 of human CXCR2; one molecule in the asymmetric unit; also called PDZ1-CXCR2; not shown: His6, N-terminal, cleaved; SUMO, N-terminal, cleaved
As to B2, the binding result in series [2] is “binds”.
